The text below walks through data of the supplement of paper PMC9112550, “Optimization of the antimicrobial peptide Bac7 by deep mutational scanning” (BMC Biology, 2022).

The data set has as its system Escherichia coli TOP10. Nature of the data set: shrunken log2 fold change of peptide-encoding DNA abundance (4.5 h post-induction vs induction); higher = less antimicrobial activity (less host growth inhibition). The conditions noted are these: time post-induction: 4.5 h; library: site-saturation at positions 5, 18, 19, 20.
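Note: peptides expressed intracellularly from a pBAD plasmid library in pooled LB shake-flask culture, induced with 0.3% L-arabinose, DNA abundance read by NGS, three biological replicates, DESeq2 with apeglm shrinkage.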

Regarding RRIRARPPRLPRPRPRPDYKPRP, the “shrunken log2 fold change” value was -0.0382.

Consider RRIRKRPPRLPRPRPRPIKIPRP, for which the “shrunken log2 fold change” value was -0.149. With RRIRERPPRLPRPRPRPSAVPRP, the “shrunken log2 fold change” value was -0.411. In the case of RRIRFRPPRLPRPRPRPQHEPRP, the “shrunken log2 fold change” value is -0.25. RRIRIRPPRLPRPRPRPRIEPRP: the “shrunken log2 fold change” value was -0.246. Regarding RRIRQRPPRLPRPRPRPHHQPRP, the “shrunken log2 fold change” value is 0.18. In the case of RRIRLRPPRLPRPRPRPRGWPRP it was 0.722; in that of RRIRLRPPRLPRPRPRPLEEPRP, 0.543. On to RRIRLRPPRLPRPRPRPALYPRP, for which the “shrunken log2 fold change” value is 0.193. With RRIRWRPPRLPRPRPRPWDEPRP, the “shrunken log2 fold change” value is -0.106. As for RRIRMRPPRLPRPRPRPQQDPRP, the “shrunken log2 fold change” value stood at 0.741. With RRIRHRPPRLPRPRPRPCNQPRP, the “shrunken log2 fold change” value is -0.185. On to RRIRWRPPRLPRPRPRPTHVPRP, for which the “shrunken log2 fold change” value is 0.316. Under RRIRERPPRLPRPRPRPTYPPRP stands -1.11; under RRIRTRPPRLPRPRPRPRYNPRP, -0.712. Under RRIRTRPPRLPRPRPRPIQNPRP stands -0.147; under RRIRQRPPRLPRPRPRPPAYPRP, 0.106. Consider RRIRWRPPRLPRPRPRPGQLPRP, for which the “shrunken log2 fold change” value is -0.0402. Consider RRIRQRPPRLPRPRPRPKPFPRP, for which the “shrunken log2 fold change” value is -0.101. RRIRARPPRLPRPRPRPMLSPRP: the “shrunken log2 fold change” value worked out at 0.133. In the case of RRIRFRPPRLPRPRPRPECTPRP it was 0.0551; in that of RRIRVRPPRLPRPRPRPSRYPRP, -0.0975. RRIRSRPPRLPRPRPRPVQVPRP: the “shrunken log2 fold change” value was determined as 0.159.

As for RRIRRRPPRLPRPRPRPSAYPRP, the “shrunken log2 fold change” value is 0.104.

As for RRIRKRPPRLPRPRPRPCTLPRP, the “shrunken log2 fold change” value is 0.0143.

Turning to RRIRQRPPRLPRPRPRPLEDPRP, the “shrunken log2 fold change” value was determined as 0.0428. RRIRVRPPRLPRPRPRPSPEPRP: the “shrunken log2 fold change” value was -0.142. Turning to RRIRHRPPRLPRPRPRPKCKPRP, the “shrunken log2 fold change” value was -0.14.

Take RRIRSRPPRLPRPRPRPQWKPRP: the “shrunken log2 fold change” value was -0.0984.

Turning to RRIRQRPPRLPRPRPRPLAQPRP, the “shrunken log2 fold change” value came out at 0.233. In the case of RRIRCRPPRLPRPRPRPYRPPRP, the “shrunken log2 fold change” value is -0.352. With RRIRRRPPRLPRPRPRPFHSPRP, the “shrunken log2 fold change” value amounted to 0.00922.

With RRIRMRPPRLPRPRPRPPDAPRP, the “shrunken log2 fold change” value was 1.53. As for RRIRLRPPRLPRPRPRPQQWPRP, the “shrunken log2 fold change” value was -0.0673.

RRIRYRPPRLPRPRPRPAYMPRP: the “shrunken log2 fold change” value is -0.396. In the case of RRIRPRPPRLPRPRPRPSKVPRP it was -0.223. Turning to RRIRNRPPRLPRPRPRPRKDPRP, the “shrunken log2 fold change” value amounted to 0.00266. In the case of RRIRKRPPRLPRPRPRPHTQPRP it was 0.13; in that of RRIRVRPPRLPRPRPRPHICPRP, -0.18; in that of RRIRPRPPRLPRPRPRPEFVPRP, -0.0384. Regarding RRIRSRPPRLPRPRPRPTIPPRP, the “shrunken log2 fold change” value was -0.104. Under RRIRPRPPRLPRPRPRPRTMPRP stands 0.276; under RRIRYRPPRLPRPRPRPHQAPRP, -0.0296. Regarding RRIRVRPPRLPRPRPRPFIPPRP, the “shrunken log2 fold change” value was -0.535. Consider RRIRIRPPRLPRPRPRPECWPRP, for which the “shrunken log2 fold change” value was 0.202.

Turning to RRIRVRPPRLPRPRPRPPGAPRP, the “shrunken log2 fold change” value turned out to be 0.595. Under RRIRCRPPRLPRPRPRPTVDPRP stands 0.337. Take RRIRTRPPRLPRPRPRPNPWPRP: the “shrunken log2 fold change” value came out at 0.0694.

With RRIRPRPPRLPRPRPRPYTQPRP, the “shrunken log2 fold change” value is -0.608. Regarding RRIRWRPPRLPRPRPRPCRPPRP, the “shrunken log2 fold change” value was determined as 0.115.
